This is an account of results in patent US20210277066A1 (BRIGHAM AND WOMEN S HOSPITAL, published 2021).

The test concerns the target T1, mouse LY6A (mouse, UniProt P05533 27-112).
T1 construct: whole, on cells; Over-expressed on HEK293T cells
T1 sequence: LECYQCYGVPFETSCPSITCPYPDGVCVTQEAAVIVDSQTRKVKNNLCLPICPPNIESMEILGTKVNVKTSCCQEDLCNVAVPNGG
Nature of the test: AAV binding to LY6A-transfected HEK293T cells on ice; bound viral genomes counted by qPCR. On the technique in general: Quantitative PCR measures a nucleic acid by following its amplification.

B1: AAV.CPP.21 (other)
chain: MAADGYLPDWLEDNLSEGIREWWALKPGAPQPKANQQHQDNARGLVLPGYKYLGPGNGLDKGEPVNAADAAALEHDKAYDQQLKAGDNPYLKYNHADAEFQERLKEDTSFGGNLGRAVFQAKKRLLEPLGLVEEAAKTAPGKKRPVEQSPQEPDSSAGIGKSGAQPAKKRLNFGQTGDTESVPDPQPIGEPPAAPSGVGSLTMASGGGAPVADNNEGADGVGSSSGNWHCDSQWLGDRVITTSTRTWALPTYNNHLYKQISNSTSGGSSNDNAYFGYSTPWGYFDFNRFHCHFSPRDWQRLINNNWGFRPKRLNFKLFNIQVKEVTDNNGVKTIANNLTSTVQVFTDSDYQLPYVLGSAHEGCLPPFPADVFMIPQYGYLTLNDGSQAVGRSSFYCLEYFPSQMLRTGNNFQFSYEFENVPFHSSYAHSQSLDRLMNPLIDQYLYYLSKTINGSGQNQQTLKFSVAGPSNMAVQGRNYIPGPSYRQQRVSTTVTQNNNSEFAWPGASSWALNGRNSLMNPGPAMASHKEGEDRFFPLSGSLIFGKQGTGRDNVDADKVMITNEEEIKTTNPVATESYGQVATNHQSAQTVSALFKAQAQTGWVQNQGILPGMVWQDRDVYLQGPIWAKIPHTDGNFHPSPLMGGFGMKHPPPQILIKNTPVPADPPTAFNKDKLNSFITQYSTGQVSVEIEWELQKENSKRWNPEIQYTSNYYKSNNVEFAVNTEGVYSEPRPIGTRYLTRNL
notes: Tested as a whole recombinant AAV particle (rAAV-mCherry); also called Bip2.6 insert TVSALFK
Regarding B1, the binding result is “no binding (tested: MOI of 10000)”.

B2: AAV.CPP.16 (other)
chain: MAADGYLPDWLEDNLSEGIREWWALKPGAPQPKANQQHQDNARGLVLPGYKYLGPGNGLDKGEPVNAADAAALEHDKAYDQQLKAGDNPYLKYNHADAEFQERLKEDTSFGGNLGRAVFQAKKRLLEPLGLVEEAAKTAPGKKRPVEQSPQEPDSSAGIGKSGAQPAKKRLNFGQTGDTESVPDPQPIGEPPAAPSGVGSLTMASGGGAPVADNNEGADGVGSSSGNWHCDSQWLGDRVITTSTRTWALPTYNNHLYKQISNSTSGGSSNDNAYFGYSTPWGYFDFNRFHCHFSPRDWQRLINNNWGFRPKRLNFKLFNIQVKEVTDNNGVKTIANNLTSTVQVFTDSDYQLPYVLGSAHEGCLPPFPADVFMIPQYGYLTLNDGSQAVGRSSFYCLEYFPSQMLRTGNNFQFSYEFENVPFHSSYAHSQSLDRLMNPLIDQYLYYLSKTINGSGQNQQTLKFSVAGPSNMAVQGRNYIPGPSYRQQRVSTTVTQNNNSEFAWPGASSWALNGRNSLMNPGPAMASHKEGEDRFFPLSGSLIFGKQGTGRDNVDADKVMITNEEEIKTTNPVATESYGQVATNHQSAQTVSALKAQAQTGWVQNQGILPGMVWQDRDVYLQGPIWAKIPHTDGNFHPSPLMGGFGMKHPPPQILIKNTPVPADPPTAFNKDKLNSFITQYSTGQVSVEIEWELQKENSKRWNPEIQYTSNYYKSNNVEFAVNTEGVYSEPRPIGTRYLTRNL
notes: Tested as a whole recombinant AAV particle (rAAV-mCherry); also called Bip2.1 insert TVSALK
On to B2, for which the binding result is listed as “no binding (tested: MOI of 10000)”.
